The source of these data is article PMC12381204.

For test [1], the target named is Phosphorylated SARS-CoV-2 Nucleocapsid protein (pN), full length, phosphorylated in vitro with GSK-3β and SRPK1 (SARS-CoV-2) (UniProt P0DTC9). The test can be described thus: […]; 20 mM Tris-HCl, 150 mM NaCl, pH 7.5, 37 °C.
Test [2] concerns the target SARS-CoV-2 Nucleocapsid protein (N), full length, unmodified (SARS-CoV-2) (UniProt P0DTC9). In words: […]; 20 mM Tris-HCl, 150 mM NaCl, pH 7.5, 37 °C.
Test [3] has as its target Membrane (M) protein C-terminal endodomain, 104-222 (UniProt P0DTC5).
For test [4], the target named is non-structural protein 3 (Nsp3) ubiquitin-like domain 1 (Ubl1), 1-111.

On to “6xHis-GFP-Nsp3^1-111, ubiquitin-like domain 1 (Ubl1) of SARS-CoV-2 non-structural protein 3 (Nsp3) (domain or fragment)”, for which the partition coefficient in test [1] came to 2.2; in test [2], 12.6.

Regarding “6xHis-GFP-M^104-222, C-terminal endodomain of the SARS-CoV-2 Membrane (M) protein (from UniProt P0DTC5 104-222) (domain or fragment)”, the partition coefficient in test [1] stood at 0.3; in test [2], 9.8.

Consider “Nucleocapsid protein (N) (from UniProt P0DTC9)”, for which the figures for the “other: partition coefficient” value in test [3] and in test [4] were “lost; reference 9.8 ± 0.3” and “weaker; reference 12.6 ± 0.1”, respectively.
